Data taken from US20230106715A1 (BIOSION, published 2023).

Assays:
[1] = target: T1, recombinant human Siglec15-his protein (human, UniProt Q6ZMC9 20-263); test: capture ELISA, captured antibody, biotin-labeled human Siglec15-his in solution
T1 construct: In house made; Biotin-labeled in the capture ELISA
T1 sequence: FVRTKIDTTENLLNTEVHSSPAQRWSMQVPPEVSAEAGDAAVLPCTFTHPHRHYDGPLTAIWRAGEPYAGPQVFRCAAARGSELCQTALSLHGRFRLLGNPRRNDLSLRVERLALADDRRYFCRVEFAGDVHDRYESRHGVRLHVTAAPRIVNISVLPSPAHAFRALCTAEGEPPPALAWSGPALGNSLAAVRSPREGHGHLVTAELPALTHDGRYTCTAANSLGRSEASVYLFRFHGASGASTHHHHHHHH
Procedure: Briefly, 96-well plates were coated with 100 μl of 2 μg/ml AffiniPure Goat Anti-Human IgG F(ab′)₂ fragment specific (Jackson Immuno Research, Cat #109-005-097) in PBS for 2 hours at 37° C. Plates were washed once with wash buffer (PBS+0.05% v/v Tween-20, PBST) and then blocked with 200 μl blocking buffer (5% w/v non-fatty milk in PBST) overnight at 4° C. Plates were washed 4 times and respectively incubated with 100 μl serially diluted anti-Siglec15 antibodies of the disclosure, the benchmark and hIgG (human immunoglobulin (pH4) for intravenous injection, Hualan Biological Engineering Inc.), 5-fold dilution in 2.5% w/v non-fatty milk in PBST starting at 66.7 nM, for 40 minutes at 37° C., and then washed 4 times again. […] The reaction was stopped in 4 minutes at room temperature with 50 μl/well 1M H₂SO₄, and the absorbance of each well was read on a microplate reader using dual wavelength mode with 450 nm for TMB and 630 nm as the reference wavelength, then the OD (450-630) values were plotted against antibody concentration. Data was analyzed using Graphpad Prism software and EC₅₀ values were reported.

[2] = target: T2, human Siglec15-mouse Fc protein (human); test: cell based blocking FACS: human Siglec15-mouse Fc in solution, blocked ligand human LRRC4C on LRRC4C-3F12-1B9 cells
T2 construct: In house made
T2 chain: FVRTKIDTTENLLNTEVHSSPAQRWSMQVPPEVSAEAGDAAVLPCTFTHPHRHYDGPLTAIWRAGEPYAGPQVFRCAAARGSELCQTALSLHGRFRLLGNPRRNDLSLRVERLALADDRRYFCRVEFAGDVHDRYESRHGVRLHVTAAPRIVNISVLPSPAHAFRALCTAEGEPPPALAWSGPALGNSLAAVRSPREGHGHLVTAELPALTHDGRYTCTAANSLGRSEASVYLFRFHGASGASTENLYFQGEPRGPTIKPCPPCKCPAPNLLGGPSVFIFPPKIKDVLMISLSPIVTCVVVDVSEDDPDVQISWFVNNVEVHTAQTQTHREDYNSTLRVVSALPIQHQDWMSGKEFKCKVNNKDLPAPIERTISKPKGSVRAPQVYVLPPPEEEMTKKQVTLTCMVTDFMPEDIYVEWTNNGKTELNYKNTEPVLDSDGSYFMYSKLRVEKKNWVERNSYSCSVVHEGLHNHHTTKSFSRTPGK
Procedure: The activities of the anti-Siglec15 antibodies to block binding of Siglec15 protein to cell surface LRRC4C were evaluated by Flow Cytometry (FACS), using in house made LRRC4C-3F12-1B9 cells. Briefly, HEK-293 cells (ATCC #CRL-1573) were transfected with pCMV-T-P plasmid constructs with the nucleotide sequence encoding human LRRC4C (amino acid residues Met1-Ile640 of uniprot #Q9HCJ2) inserted between EcoRI and XbaI, following the instruction of lipofectamine 3000 transfection reagent (Thermo Fisher). A stable cell named LRRC4C-3F12-1B9 was chosen for subsequent cell based ligand-blocking assay.
Briefly, the anti-Siglec15 antibodies of the disclosure or controls were diluted with human Siglec15-mouse Fc protein (prepared in-house with SEQ ID NO: 26, 8 μg/ml […] in FACS buffer), starting at 66.67 nM with a 5-fold serial dilution, and incubated at room temperature for 40 minutes. Then, LRRC4C-3F12-1B9 cells were harvested from cell culture flasks, washed twice and re-suspended in PBS containing 2% v/v Fetal Bovine Serum (FACS buffer). Then, 1×10⁵ cells per well in 96 well-plates were incubated in 100 μL of the antibody/Siglec15-mouse Fc mixtures for 40 minutes at 4° C. […] Cells were washed twice and re-suspended in FACS buffer. Fluorescence was measured using a Becton Dickinson FACS Canto II-HTS equipment. Data was analyzed using Graphpad Prism software and IC₅₀ values were reported.

B1: anti-Siglec15 benchmark (ch5G12) (antibody, human IgG1, kappa, V domains shown)
VH: QVQLQQPGAELVKPGASVKMSCKASGYTFTSYWITWVIQRPGQGLEWIGDIYCGSDTMHYNEKFKNKATLTVDTSSSTAYMQLSSLTSEDSAVYYCARWWDYGSSYDYFDYWGQGTTLTVSS
VL: DIKMTQSPSSMYASLGERVTITCKASQDINSYLSWFQQKPGKSPKTLIYRANRLVDGVPSRFSGSGSGQDYSLTISSLEYEDMGIYYCLQYDEFPYTFGGGTKLEIKR
notes: ch5G12 (US 20190202912A1); also called BM; Siglec15-ch5G9
Q: For B1, which EC50 [1] is on record?
A: 2.35 nM

Q: And the IC50 [2]?
A: 0.639 nM
